Laboratory results published in publication PMC12236388, “Investigating the co-assembly of amphipathic peptides” (Faraday Discussions, 2025).

Molecular target: T1, K(FEFK)2K
T1 construct: designed amphipathic self-assembling peptide, L-amino acids; printed in short form K(FEFK)2K and written out here; forms beta-sheet-rich fibres and a hydrogel at pH 7; also called base peptide; peptide 1; source: synthetic peptide; bought: LifeTein Inc. (HCl salt, nominal purity 95%)
T1 peptide: KFEFKFEFKK
Assay: FRET or BRET; FITC/Dabcyl quenching in mixed hydrogels: base peptide 3.75 mg mL^-1 plus secondary peptide, total 7.5 mg mL^-1 (mass ratio 1:1), pH 7, water; powders mixed before dissolving, pH raised stepwise with NaOH; quenching percentage compared with base hydrogels at 3.75 and 7.5 mg mL^-1

K(FEFK)2K (peptide)
fluorescence quenching percentage: 30%

B1: (FEFK)2K (peptide)
peptide: FEFKFEFKK
notes: designed amphipathic peptide; printed in short form (FEFK)2K and written out here; source: synthetic peptide; bought: LifeTein Inc. (HCl salt, nominal purity 95%)
binding result (both partners purified): binds
